Assay results taken from patent US20180105596A1 (ELSALYS BIOTECH, published 2018).

Target: T1, recombinant His-Strep tagged human Tyro3 extracellular domain (human, UniProt Q06418 41-429)
T1 construct: also called hTyro3 ECD; full Tyro3 ECD
T1 sequence: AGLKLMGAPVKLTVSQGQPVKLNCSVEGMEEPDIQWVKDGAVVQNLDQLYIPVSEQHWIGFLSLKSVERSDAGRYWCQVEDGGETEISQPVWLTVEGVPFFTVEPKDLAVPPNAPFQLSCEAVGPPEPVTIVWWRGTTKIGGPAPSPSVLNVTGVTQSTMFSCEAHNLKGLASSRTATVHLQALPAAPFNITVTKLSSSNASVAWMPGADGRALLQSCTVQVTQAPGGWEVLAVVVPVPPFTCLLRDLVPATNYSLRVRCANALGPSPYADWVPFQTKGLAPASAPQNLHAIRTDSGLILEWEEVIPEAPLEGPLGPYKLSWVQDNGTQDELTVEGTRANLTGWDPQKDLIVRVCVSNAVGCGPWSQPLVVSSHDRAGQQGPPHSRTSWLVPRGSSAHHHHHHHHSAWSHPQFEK
Test: sandwich ELISA, Strep-tagged hTyro3 ECD captured on StrepMAB plate, scFv 3-fold from 10 µg/mL, anti-FLAG-HRP
Method: A double sandwich ELISA was developed. This assay consisted in measuring the binding of the anti-Tyro3 antibodies to be tested on immobilized strep-tagged entire human Tyro3 ECD captured directly on ELISA plate pre-coated with an anti-strep mAb (StrepMAB-Immo coated microplates from IBA biotech). Briefly, the 96 wells of StrepMAB-Immo coated microplate were washed three times with 300 μL of the PBS Tween 0.2% (referred as ELISA washing solution). The capture of an excess of purified strep tagged hTyro3 ECD protein was achieved by a one hour incubation at room temperature. In these experiments, 3 μg of purified protein diluted in PBS, BSA 1% (referred as ELISA diluent solution) were immobilized per well. The wells were washed three times with 300 μL of the washing solution. The non-specific binding sites on the well surface were blocked during 60 min at room temperature with 200 μL/well of blocking solution (PBS, BSA 3%). The wells were washed five times with 300 μL of the washing solution. Then, 100 μl (in duplicates) of the different concentrations of anti-Tyro3 antibodies to be tested diluted in ELISA diluent solution, were added per well and allowed to incubate during 1 hour at room temperature. An Irrelevant control IgG2656 was also added in this experiment. For anti-Tyro3 antibodies in the ScFv format, experiments were performed with 6 concentrations in duplicates (FIG. 3A). […]

binding result: binds
B1: anti-Tyro3 scFv 2717 (scFv, V domains shown)
VH: EVQLVQSGADVKKPGASLTISCQASGYTFTDYWISWVRQKPGKGLEWMGEIFLPPSTTVYGPSFQGHVTISADRSTATAYLQWRSLEASDTAMYYCVRQTRLTSGGTIPEYYQHWGPGTLVTVSS
VL: SYELTQPPSVSVSPGQTARITCSGDALPKKYAYWYQQKSGQAPVLVIYEDNKRGSGIPERFSGSSSGTMATLTISGAQVEDEADYYCYSKSPEGNYMVFGGGTKLTVL
notes: Tested as a single-chain Fv made in E. coli
